Key:
Assay type in all cases: biochemical
[1] = Relation between reaction temperature and activity of purified enzyme; details: reaction temperature 75° C.; activity at 65° C. = 100%
Protocol: By using the decrease of OD265 at the time of reaction as an index, the enzyme activity was measured. To 1.5 ml of solution obtained by mixing 0.017M 5′ AMP-2Na and 1/15M phosphate buffer solution (pH 5.6) at the ratio of 1:2, 0.5 ml of sample solution was added so as to obtain a reaction solution, which was reacted at 37° C. for 15 minutes. Then, 2% perchloric acid solution was added so as to stop the reaction and 100 μl of the solution was taken out. Water was added to the solution so that the total amount was 5 ml. Then, OD265 was measured. The value similarly measured at reaction time of 0 minute was defined as a blank. Under the above-mentioned conditions, a case where an absorbance difference is reduced by 0.001 during 60 minutes was defined as one unit.
The relation between the reaction temperature and activity of the obtained purified enzyme was examined. […] As is apparent from the graph of FIG. 7 (a), high activity is observed in the wide range from 40° C. to 70° C. Furthermore, even in the case where the reaction temperature is 75° C., about 50% activity is found. Thus, it is shown that the enzyme acts favorably under the wide range of temperatures.

[2] = Enzyme kinetics (Km, Vmax)
Substrate specificity = details: activity with respect to 5′ AMP = 100%
Source text: It is reported that adenosine deaminase derived from Streptomyces aureofaciens has a wide range of substrate property, for example, catalytic ability of AMP (non-patent document 2). Taken this into consideration, in order to confirm whether deaminase derived from Streptomyces murinus obtained in the above-mentioned method is AMP-deaminase or adenosine-deaminase, the substrate specificity was investigated. Note here that the relative activity, when the enzyme activity with respect to 5′ AMP is defined as 100% is represented. […] In particular, the enzyme acted on 5′dAMP, ADP and ATP favorably. From the above-mentioned results, it was confirmed that the deaminase derived from Streptomyces murinus obtained by the above-mentioned method was AMP deaminase. Furthermore, it was determined that the enzyme was able to be employed preferably in a reaction using 5′dAMP, ADP and ATP as a substrate.
In order to determine whether the deaminase derived from transformant (SAD-1) obtained as mentioned above was AMP deaminase or Adenosine-deaminase, the substrate specificity was investigated. Note here that relative activities when the enzyme activity with respect to 5′ AMP was defined as 100% are represented. […] In particular, the enzyme acted on 5′-dAMP, ADP and ATP favorably. From the above-mentioned results, it was confirmed that deaminase derived from transformant (SAD-1) was similar to AMP deaminase derived from Streptomyces murinus and it was AMP deaminase. Furthermore, it was determined that the enzyme can be preferably used with respect to the reaction using 5′-dAMP, ADP and ATP as a substrate.

[3] = IMP conversion reaction (HPLC); details: 1.1% AMP solution, pH 7.0, 50° C., 4 hours
Protocol: IMP conversion rate by HPLC of AMP deaminase produced by Aspergillus melleus and Streptomyces murinus was examined. Specifically, by using 1/15M phosphate buffer solution (pH 7.0), 1.1% AMP solution was prepared. To 5 ml of 1.1% AMP solution, 0.5 ml of enzyme solution was added and reacted at 50° C. for 4 hours. Thereafter, heat treatment at 100° C. was carried out for 10 minutes, filter filtration (0.45 μm) was carried out, and HPLC analysis was carried out.

B1: AMP deaminase derived from Streptomyces murinus: thermostable AMP deaminase enzyme produced by Streptomyces murinus IFO14802; amino acid sequence SEQ ID NO: 1 (protein, listed as Streptomyces murinus)
chain: APPPRQATAAEARTDAYLRSVKDRPAALRAFFRQLPKGGDLHNHLSGAVNTDYLIELAAEDGLCIDATMTAVPSPCGPGTRPAADARTDRAFHDAIVRAWSMQDFPPDENGHDHFFDTFGKFGEVTWRHRGKLLAQVADTVVANNQSYLETMVTPASDGAKQLADQVGWDADLTALHRKLAAGGKLDKLVADARKEADDGDAEFRATEHCGTAKARPACGLTVRWISQASRGSSPVRVFTQLDLGMRLAEADSRFVAVNLVQPEDWDSSLENYSLQMRMVGYLRTVYPKAHVTLHAGELWPGLVKPEALKFHIAEAVDIAHTQRVGHGVDLVHEDNWQRTARTMAARQIAVEVPFSSNAQILGVKGAEHPFTTYRRYGVPVVLATDDPGVSRIDISHEYQYAAATYGLGYPELKDLARASLQYAFLPGASLWQGNPTAQGYHPVAACRAERPGQPVHSAACRRLLDGSARARLEWRQEAAFAAFERAHARG
relative activity [1]: about 50%
Km [2]: 950 µM
Vmax [2]: 3.5e+07 µmol/min/mg
action on substrate 2′AMP (Substrate specificity): did not act on
action on substrate 3′5′-cyclic AMP (cAMP) (Substrate specificity): also acted on
action on substrate 3′AMP (Substrate specificity): also acted on
action on substrate 5′ AMP (Substrate specificity): most favorably
action on substrate 5′dAMP (Substrate specificity): favorably
action on substrate ADP (Substrate specificity): favorably
action on substrate ATP (Substrate specificity): favorably
action on substrate adenine (Substrate specificity): did not act on
IMP conversion rate compared with AMP deaminase produced by Aspergillus melleus [3]: the same level
ratio of the side product (hypoxanthine) compared with Aspergillus melleus [3]: smaller

Reference: US7709240B2, “AMP deaminase originating streptomyces and utilization thereof” (Amano Enzyme Inc., priority 2004, dated 2010)
